Experimental data taken from paper PMC4370504, “Structural Basis for Ubiquitin Recognition by Ubiquitin-Binding Zinc Finger of FAAP20” (PLoS ONE, 2015).
Changes are numbered by the printed parent chain. One block for each binder: values may come before it.

How the values were obtained:
Assay in all cases: SPR; Biacore T200, Sensor Chip C1; GST-fused Ub or Ub2 captured by immobilised anti-GST antibodies (200-400 RU); FAAP20-UBZ injected 60 s at 10 uL/min; 25°C, HBS-P (10 mM HEPES-Na pH 7.4, 150 mM NaCl, 0.05% surfactant P20); equilibrium fit, 1:1 model; triplicate
Details in all cases: both partners purified
[1] = target: T1, GST-fused K63-linked diubiquitin (K63-Ub2) (UniProt P0CG48 1-76; P0CG48 1-76, K63R | additional aspartate residue at its C-terminal extremity (D77), K63-linked to the other Ub chain | K63-linked to the other Ub chain)
T1 construct: ubiquitin carrying the K63R mutation, GST-fused; ubiquitin with an additional aspartate residue at its C-terminal extremity (D77 Ub); Surmised: Gly76 of GST-K63R Ub (distal) is joined by an isopeptide bond to Lys63 of D77 Ub (proximal); also called K63-linked Ub2; GST-fused K63-Ub2

[2] = target: T2, GST-fused M1-linked diubiquitin (M1-Ub2) (UniProt P0CG48 1-76; P0CG48 1-76)
T2 construct: ubiquitin, first (distal) moiety of the M1-linked (linear, head-to-tail) diubiquitin; ubiquitin, second (proximal) moiety, its Met1 joined to Gly76 of the first; Written as one chain of two ubiquitins, as M1-linked; also called M1-linked Ub2; GST-fused M1-Ub2; source: purified (Glutathione Sepharose FF, ResourceQ)

[3] = target: T3, GST-fused K48-linked diubiquitin (K48-Ub2) (UniProt P0CG48 1-76; P0CG48 1-76, K48R | additional aspartate residue at its C-terminal extremity (D77), K48-linked to the other Ub chain | K48-linked to the other Ub chain)
T3 construct: ubiquitin carrying the K48R mutation, GST-fused; ubiquitin with an additional aspartate residue at its C-terminal extremity (D77 Ub); Surmised: Gly76 of GST-Ub K48R (distal) is joined by an isopeptide bond to Lys48 of D77 Ub (proximal); also called K48-linked Ub2; GST-fused K48-Ub2

[4] = target: T4, GST-fused ubiquitin (Ub) (UniProt P0CG48 1-76)
T4 construct: ubiquitin (Ub), the mature product of a ubiquitin precursor; Captured on the chip by anti-GST antibodies; source: purified (Glutathione Sepharose FF, ResourceQ)

[5] = target: T1, GST-fused K63-linked diubiquitin …; remark: listed apart in the source
[6] = target: T4, GST-fused ubiquitin (Ub); remark: listed apart in the source

B1: FAAP20-UBZ (UBZ domain of FAAP20, residues 142-180), wild type (domain or fragment, human, UniProt Q6NZ36 142-180, looked up)
chain: AALRSCPMCQKEFAPRLTQLDVDSHLAQCLAESTEDVTW
notes: also called FAAP20-UBZ(wt); WT; source: E. coli Rosetta (DE3), purified (Glutathione Sepharose FF, ResourceQ, HRV3C cleavage, Superdex75); not shown: GST, N-terminal, cleaved
Kd [1]: 35.9 µM
Kd [2]: 22.3 µM
Kd [3]: 39.1 µM
Kd [4]: 19.9 µM
stoichiometry N [5]: 2

B3: FAAP20-UBZ D177A (domain or fragment, human, UniProt Q6NZ36 142-180, looked up)
chain: B1 chain with D36A
notes: human FAAP20, UBZ domain, residues 142-180; source: purified similarly to wild-type FAAP20-UBZ (E. coli Rosetta (DE3)); not shown: GST, N-terminal, cleaved
Kd [6]: 218 µM

The remaining binders from weak to strong by Kd [6], led by results:

Kd [6]: 125 µM
B4: FAAP20-UBZ L161A (domain or fragment, human, UniProt Q6NZ36 142-180, looked up)
chain: B1 chain with L20A
notes: as for B3

Kd [6]: 113 µM
B2: FAAP20-UBZ A172L (domain or fragment, human, UniProt Q6NZ36 142-180, looked up)
chain: B1 chain with A31L
notes: as for B3
